Laboratory results published in the nanobody polyreactivity screen of Harvey et al. (2022).

Experiment: yeast display, Sf9 membrane polyspecificity reagent, FACS + sequencing; frameworks hold sequencing errors
How it was run: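 Synthetic nanobody libraries on Saccharomyces cerevisiae BJ5465 were galactose-induced for 36–48 hours, stained 1 hour at 4 °C with 10% biotinylated, detergent-solubilized Sf9 membrane reagent and enriched on streptavidin microbeads. FACS then separated cells into low and high (top ~1%) gates by anti-HA (expression) and streptavidin (reagent binding) fluorescence. Genes were colony-PCR amplified, MiSeq 2 × 250 sequenced and CDR-length filtered. A clone's polyreactivity label is that of its gate of origin.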

Sequence	polyreactivity (PSR sort gate)
QVQLVESGGGLVQAGGSLRLSCAASRLTFRYYAMGWYRQAPGKERELVASISSSSGSTYYADSVKGRFTISRDNAKNTVYFQMNSLKPEDTAVYYCNARGWTLGADFGYWGQGTQVTVSS	low polyreactivity
QVQLVESGGGLVQAGGSLRLSCAASGSTFQRYAMGWSRQAPGKERELVAAIDTVGSTNYADSVKGRFTISRDNAKNTVYLQMNSLKPEDTAVYYCAVVTPYWSFYEQVIPSNYWGQGTQVTVSS	low polyreactivity
QVQLVESGGGLVQAGGSLRLSCAASGITFPLYAMGWYRQAPGKERELVATISGRGGSTYYADSVKGRFTISRDNAKNTVYLQMNSLKPEDTEVYYCNADFRSPYFLLSWYHSGDYWGQGTQVTVSS	low polyreactivity
QVQLVESGGGLVQAGGSLRLSCAASGRIFRSNAMGWYRQAPGKERELVATISRRGGSTYYADSVKGRFTISRDNAKNTVYLQMNSLKPEDTAVYFCNTRNSGSLDLYNTMDYWGQGTQVTVSS	high polyreactivity
QVQLVESGGGLVQAGGSLRLSCAASGSTFSKNGMGWYRQAPGKERELVAAITVNGGSTSYADSVKGRFTISRDNAKNTVYLQMNSLKPEDTAVYYCARRRYSKYYYWGQGTQVTVSS	high polyreactivity
QVQLVESRGGLVQAGGSLRLSCAASGSIFDSYAMGWYRQAPGKERELVADISSGGSTYYADSVKGRFTISRDNAKNTVYLQMNSLKPEDTAVYYCAAQYVYYFYGDEAFTDDYWGQGTQVTVSS	low polyreactivity
QVQLVESGGGLVQAGGSLRLSCAASGFNFVGNAMGWYRQAPGKERELVADITGSDGSTYYADSVKGRFTISRDNAKNTVYLQMNSLKPEDTAVYYCAASPPYKLVWWRRMDYWGQGTQVTVSS	low polyreactivity
QDQLVESGGGLVQAGGSLRLSGAASGSTFGGNAMGWYRQAPGKERELVAAISSSGGSTYYADSVKGRFTISRDNAKYSVYLQMNRLKPEDTAVYYCAAMYHWTYDYWGQGTQVTVSS	low polyreactivity
QVQLVESGGGLVQAGGSLRLSCAASGGIIRVYVMGWSRQAPGKERELVAAISRRGGSTYYADSVKGRFTISRDNAKNTVYLQMNSLKPEDTAVYYCAAAVRPRANTTYQRPRYYYWGQGTQVTVSS	high polyreactivity
QVQLVESGGGLVQAGGSLRLSCAASGSTFDHNAMGWYRQAPGKEREFVAAISARGGITYYADSVKGRFTISRDNAKNTVYLQMNSLKPEDTAVYYCADVFGDYWSSQWSYAYGYWGLGTQVTVSS	high polyreactivity
QVQLVESGGGLVQAGGSLRLSCAASGSIFYLYAMGWYRQAPGKERELVAAISESGSTTYYADSVKGRFTISRDNAKNTVYLQMNSLKPEDTAVYYCARLGTYTVVTYDYWGQGTQVTVSS	low polyreactivity
QVQLVESGGGLVQAGGSLRLSCAASGRTFYDYAMGWYRQAPGKERELVADITSGGGNTYYADSVKGRFTISRDNAKNTVYLQMNSLKPEDTAVYYCNADYDLYFSGWYDYWGQGTQVTVSS	low polyreactivity
QVQLVESGGGIVQAGGSLRLSCAASGSIFITYAMGWYRPAPGKERELVAAIRDSGDRTYYADSVKGRFTISRDNAKNTVYLQMNSLKPEDTAVYYCAARIWTGRGRKLGYGYVYWGQGTQVTVSS	low polyreactivity
QVQLVESGGGLVQAGGSLRLSCAASGFTFYSYVMGWYRQAPGKERELVAAISWSGGSTYYADSVKGRFTISRDNAKNTVYLQMNSLKPEDTAVYYCAARRYASRTGYLYDYWGQGTQVTVSS	high polyreactivity
QVQLVESGGGLVQAGGSLRLSCAASGLIFRWYAMGWYRQAPGKERELVAAISRRGGNTYYADSVKGRFTISRDNAKNTVYLQMNSLKPEDTAVYYCAASPIRSQGNDYWGQGTQVNVSS	high polyreactivity
QVQLVESGGGLVQAGGSLRLSCAASGLIFKLYAMGWYRQAPGKERELVAAITDRGGSTYYADSVKGRFTISRDNAKNTVYLQMNSLKPEDTAVYYCAAPYAGWRDGGDYWGQGTQVTVSS	low polyreactivity
QVQLVESGGGLVQAGGSLRLCCAASGIIFDGYAMGWYRQAPGKERELVAGITIGDITYYADSVKGRFTISRDNAKNTVYLQMTSLKPEDTAVYYCAADSYYYQTAYDYWGQGTQVTVSS	low polyreactivity
QVQLVESGGGLVQAGGSLRLSCAASGRTFIGYAMGWYIQAPGKERELVAAISPGGSTKYADSVKGRFTISRDNAKNTVYLQMNILKPEDTAVYYCNAYSQSWNFYGDGDYWGQGTQVTVSS	low polyreactivity
QVQLVESGGGLVQAGGSLRLSCAASGSIFVRYTMGWYRQAPGKERELVAAISWGGGSTYYADSVKGRFTISRDNAKNTVYLQMNSLKPEDTAVYYCNKRYIQLYDYWGQGTQVTVSS	low polyreactivity
QVQLVESGGGLVQAGGSLRLSCAASGFTFTTYAMGWYRQAPGKERELVARISRRSGSTYYADSVKGRFTISRDNAKYTVYLQMNSLKPEDTAVYYCNADVDRSTTIFDYWGQGTQVTVSS	high polyreactivity
QVQVVESGGGLVQAGGSLRLSCAASGSTFSIYAMGCYRQAPGKERELVAAISSSGGSTYYADSVKGRFTISRDNGKNTVYLQMNSLKPEDTAVYYCNKRKYHVRYDYWGQGTQVTVSS	low polyreactivity
QVQLVESGGGLVQAGGSLRLSCAASGSTLLANAMGWYRQAPGKERELVATITNSGGGTYYADSVKGRFTISRDNAKNTVYLQMNSLKPEDTAVYYCAAVYTGRSQYSKWRYEYWGQGTQVTVSS	low polyreactivity

Sequence	polyreactivity (PSR sort gate)
QVQLVESVRGLVQAGGSLRLSCAASGRIIYLNGMGSYRQAPGKERELVAAISSSDDSTYYAVSVKGRFTISRDNATNTVYLQLNSLKPEDTAVYYCAAGYHQVQNYGDAYYWSELYSWGQGTQVTVSS	low polyreactivity
QVQLVESGGGLVQAGGSLRLSCAASGLTFNHNAMGWYRQAPGKERELVAAISRRGGSTYYADSVKGRFTISRDNAKNTVYLQMNSLKPEDTAVYYCNAPVKVRATTNWEYDYWGQGTQVTVSS	high polyreactivity
QVQLVESGGGLVQAGGSLRVSCAASGSTFGGNAMGWYRQAPGKERELSTYYADSVKGRFTISRDNAKNTVYLQMNSLKPEDTAVYYCNTENFYGSDIFDSWGQGTQVTVSS	low polyreactivity
QVQLVESGGGLVQAGGSLRLSCAASGFTFYRYAMGWYRQAPGKERELVAAITRSGSRSYYADSVKGRFTISRDNAKNTVYLQMNSLKPEDTAVYSCNGPRPASTDRRRYNYCGQGTQVTVSS	high polyreactivity
QVQLVESGGGLVQAGGSLRLSCAASGITFYGNAMGWYRQAPGTERELVAAITGGGGTNYADSVKGRFTISRDNAKNTVYLQMNSLKPEDTAVYYCNRDYFVWFQRGQYKRGSSWYDYWGQGTQVTVSS	low polyreactivity
QVQLVESGGGLVQAGGSLRLICAASGRTFSVYAMGWYRQAPGKERELVAAISWNGGNTYYADSVKGRFTISRDNAKNTVYLQMNSLKPEDTAVYYCAAERFLARRYYYWGQGTQVTVSS	low polyreactivity
QVQLVESGGGLVQAGGSLRLSCAASGRTFVPYAMGRYRQAPGKERELVAAISSSGGSTYYADSVKGRFTISRDNAKNTVYLQMNSLKPEDTAVYFCAAKSRKGGDYWGQGTQVTVSS	high polyreactivity
QVQLVESGGGLVHAGGSLRLSCAASGFTFAGYAMGWYRQAPGKERELVAGIRSSGARTYYADSVKGRFTISRDNAKNTVYLQMNSLKPDDTAVYYCAKTDGFYGGYGYWGQCTQVTVSS	low polyreactivity
QVQLVESGGGLVQAGGSLRISFAASGRTFFGYAMGWYRQAPGKERELVATIDGSDGSTFYADSVKGRFTISRDNAKNTVYLQMNSLKPEDTAVYYCAAENFWQSKEYDYWGQGTQVTVSS	low polyreactivity
QVQLVESGGGLVQAGGSLRLSCAASGFIFSPYAMGWYRQAPGKERELVAAISSGGSTYYADSVKGRFTISRDNAKNTVYLQMNSLKPEDTAVYYCAASWGRRKPRMDYWGLGTQVTVSS	high polyreactivity
QVQLVESGIGLVQAGGSLRLSCAASGRTLGGNAMGWYRQAPGKERELVAAINWSGGITYYADSVKGRFTISRDNAKNTVYLQMNSLKPEDTAVYYCARYKYNRQTRVEYGYWGQGTLVTVSS	high polyreactivity
QVQLGESGGGLVQAGGSLRLICAASGSTFYYNAMGWSRQAPGKEWELVAAITYSGGDTYYADSVKGRFTMSRDNAKNTVYLQMNSLKPEDTAVYYCAAEYYWYNVYTGHLWYDYWGQGTQVTVSS	high polyreactivity
QVQLVESGGGLVQAGGSLRLSCAASGRTFRLYALGWYRQAPGKERELVAAIRSSGGRTYYADSVKGRFTISRDNAKKTVYLQINSLKPEDTAVYYCATTSGLIGYYWKYNYWGQGTQVTVSS	high polyreactivity
QVQLVESGGGLVQAGGSLRLSCAASGFTITKYAMGWYRQAPGKERELVAAISSSGYSTYYADSVKGRFTISRDNAKNTVYFQMNSLKPEDTAVYYCAARGYYSSGVDYCGQGTQVTVSS	high polyreactivity
QVQLVESGGGLVQAGGSLRLSCAGSGLIFRIYAMGWYTQAPGKEREFVAAIRWRGGSTYYADSVKGRFTISRDNAKNTVYLQMNSLKPEDSAVYYCAVRYCPYRPRLDYWGQGTQVTVSS	high polyreactivity
QVQLEESGGGLVQAGGSLRLSCAASGLTISWNAMGWYRQAPGKERELVAAISSRGGSTYYADSVKARFKISRDNAKNTVYLQMNSLKPEETAVYYCAAEGYTYYPVYSTRMYYWGQGTQVTVLS	low polyreactivity
QVQLVESGGGLVQAGGSLRLSCAASGFTFTRYGMGWYRQAPGKERELVAGISSGGSTNYADSVKGRFTISRDNAKNTVYLQRNSLKPEDTAVYYCAARAKRYNVRFDYWGQGTQVTVSS	high polyreactivity
QVQLVESGGGLVQAGGSLLLSCAASGRTLGKYAMGWYRQAPGKERELVAAISSGGGSTYYSDSVKGRFTISRDNAKNTVYLLMNSLKPEDTAVYYCAADSVSRYNGYDYWGQGTQVTVSS	high polyreactivity
QVQLVESGGGLVQAGGSLRLSCAASGRILGVYVMGWYRQAPGKERELVAAISGGGRTNYADSVKGRFTISRDNAKNTVYLQMNSLKPEDTAVYYCNAERPYQYYPGIYRWYYYWGQGTQVTVSS	low polyreactivity
QVQLVESGGGLVQAGGSLRLSCAASGFTFFKYAMGWYRQAPGKERELVAAITRNGGRTYYADSVKGRFTISRDNAKNTVYLQMNSLKPEDTAVYYCAAVQYRYGGMDYWGQGTQVTVSS	high polyreactivity
QVQLVESGGGLVQAGGSLRLSCAASGSIFSGNAMGWYRPAPGKGRELVAGSSRRGGRTYYADSVKGRFTISRDNAKNTVYIPMNSLKPEDPAVYYCNKDVFGDTREYDYWGQGTQVTVSS	high polyreactivity
